According to the nanobody polyreactivity screen of Harvey et al. (2022):

Assay: yeast display, Sf9 membrane polyspecificity reagent, FACS + sequencing; frameworks hold sequencing errors
Summary of the method: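 Nanobodies came from a synthetic yeast display library in Saccharomyces cerevisiae BJ5465, induced with galactose for 36–48 hours and stained for 1 hour at 4 °C with 10% biotinylated, detergent-solubilized Sf9 membrane reagent. Cells were enriched on streptavidin microbeads and then FACS-sorted, with low and high (top ~1%) gates set on anti-HA fluorescence for expression and streptavidin fluorescence for reagent binding. Each polyreactivity label reflects the gate a clone came from. Genes were amplified by colony PCR, sequenced by MiSeq 2 × 250 and filtered by CDR length.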

Sequence	polyreactivity (PSR sort gate)
QVQLVESGGGLVQTGGSLRLICAASGRTFAVNDMGWYRQARGKERELVAAITWRGDSTYYADSVKGRFTISRDNAKNTVYLQMISLKPEDTAVYYCNAYYDGDWRYTSLETGEHWGQGTQVTVSS	low polyreactivity
QVQLVESGGGLVQAGGSLRLSCAASGRTFYRNAMGWYRQAPGKERELVAAIRTRTGSTYYADSVKGRFTISRDNAKNTVYLQRNSLKPEDTAVYYCNASPYVNGRYGSWGQGTQVTVSS	high polyreactivity
QVQLVESGGGLVQAGGSLRLSCAATGFTFRFYAIGWYRQAPGKERELVAAISSRGTTTYYADSVKGRFTISRDNAKNTVYLQMNSLKPEDTAVYYCNKEYTTYGYDLEYDYWGQGTQVTVSS	low polyreactivity
QVQLVESGGRLVQAGGSLRLSCAASGRIFGRYAMGWYRQAPGKERELVAAISSSGGSTYYADSVKGRFTISRDNAKNTVYLQMNSLKPEDTAVYYCAAEIIKVAYRVAYYYWGQGTQVTVSS	high polyreactivity
QVQLVESGGGLVQAGGSLRLSCAASGRIFVKNAMGWYRQAPGKERELVAGISRGGSTYYADSVKGRFTISRDNAKNTVYLQMYSLKPEDTAVYYCATRNYGRGQFDYWGQGSQVTVSS	high polyreactivity
QVQLVESGGGLVQAGGSLRLSCAASGRTLSRNAMGWYRQAPGKERELVAAINYSGGITYYADSVKGRFTISRDNAKNTVYLQMNSLKPEDTAVYYCAATVKYWGQGTQVTVSS	high polyreactivity
QVQLVDSGGGLVQAGGRLRLSCAASGSTFGWYGMGWYIQAPGKERELVASINWRGSSTYYADSVKGRFTMSRDNAKNTVYLQMNSLKPEDTAVYYCATTRDWAYNYWGQGTQVTVSS	low polyreactivity
QVQVVESGGGLVQAGGRLRLSCAASGRIFYWYAMGWSRQAPGKERELVADINHGDTSTYYADSVKGRFTISRDKAKNTVYLQMNSLKPEDTAVYYCNVRSYVYSRWYQSTWGYYYWGQGTQVTVSS	high polyreactivity
QVQLVESGGGLVQAGGSLRLSCAASGSTFYYVNAMGWYRQAPGKEREFVAAISSSSGSTYYADSVKGRFTISRDNAKNTVYLQMNSLKPEDTAVYYCAKVPRYYKSYYWGQGTQVTVSS	high polyreactivity
EVQLVESGGGLVQAGGSLRLSCAASGTSFLLYAMGWYRQARGKERELLAAISSSGARTYYADSVKGRCTISRDNAKYTVYLQMNSLKPEDTAVYYCAASRRAYRSSYVSPFGYWGQGTQVTGSS	high polyreactivity
QVQLVESGGGLVQAGGSLRLSCAASGRTFPINAMGWYRQAPGKERELVASIRWTDGTTYYADSVKGRFTISRDSAKNTVYLQMNSLKPEDTAVFYCAADAEGSASKYDYWGQGTQVTVSS	low polyreactivity
QVQLVESGGGLVQAGGSLRLSCAASGITFVPNAMGWYRQAPGKERELVAAITGNGGRTYYADSVKGRFTISRDNAKNTVYLQMNSLKPEDTAVYYCNGRKLYWAYTLSKYDYWGQGTQLTVSS	high polyreactivity
QVQLVESGGGLVQAGGSLRLSCAASGSIFKIYAMGWYRQAPGKERELVAAISRRGSSTSYADSVKGRFTISRDNAKNTVYLQMNSLKPEDTAVYYCAARYISNPMDYWGQGTQVTVSS	high polyreactivity
QDQLVESWGGLVQAGGSLRLSCAASGFTFRNNAMGWYRHAPWKERDLVASITARGGSTYYADTVKGRFTISRDNAINTVYVQLNILKTEDTAVYYSATDDYTWRRHPWYAGYDSWGQGTQVTVSS	low polyreactivity
QVQLVESGGGLVQAGGSLRLSCAPSGRTFRYYAMGWYRQAPGKERELVAAINWSGGSTYYADSVKGRFSISRDNAKNAVYLQKNSLKPEDTAVYYCAADEKMYITGYDYWGQGTQVTVSS	low polyreactivity
QVQLVESGGGLVQAGGSLSLSCAASGFIFDYYTMGWYRQAPGKEREFVAAINRRGDITYYADSVKGRFTISRDNAKNTVYLQMNSLKPEDTAVYSCAATLTWSSRYEYGYWGQGTQVTVSS	low polyreactivity
QVQLVESGGGLVQAGGSLRLSCASSGSIFNYNSMGGYRQAPGKERELVAGITTSGGSTYYADSVKGRFTISRDNAKNTVYLQMNSLKPEDTAVYYCAGYDYISSTYFLDDFWGQGSQVTVSS	low polyreactivity
QVQLVESGGGLVQAGGSLRLSCADSGRNFYYYAMGWYRQAPGKERELVAAITSGGRTNYADSVKGRFTISRDNAKNNVYLQMNSLKPEDTAVYYGAATSKYKVRYSRYYYWGQGTQVTVSS	high polyreactivity
QVQLVESGGGLVQAGGSLRLSCAASGRTFRVYTMGWYRQAPGKERELVAVISGRGGSTSYADSVKGRFTISRDNAKNTVDLQMNSLKPEDTAVYYCAARGRAHWHYDYWGQGTQVTVSS	high polyreactivity
QVQLVESGGGLVQAGGSLRLSCAASGRTFWKYAMGWYRQAPGKERELVAAITASGARTYYADSVKGRFTISRDNAKNTVYLQMNSLKPEDTAVYYCNAGSVSDRQMDYWGQGTQVTVSS	low polyreactivity
QVQLVESGGGLVQAGGSLRLSCAASGRIFTSNVMGWYRQAPGKERELVAAISWTGGNTYYADSVKGRFTISRDKAKNSVYLQMNSLKPEDTAVYYCAVTYWSAVFIPNKYDYWGQGTQVTVSS	low polyreactivity
QVQLVESGGGLVQAGGSLRLSCAASGRTFRGYAMGWYRQAPGKEREFVAAITWTSGSTYYADSVKGRFTISRDNAKNTVYLQMNSLKPEDTAVYYCAARVYSQALRLWGNNYWGQGTQVTVSS	high polyreactivity

Sequence	polyreactivity (PSR sort gate)
QVQIVESGGGLVQAGGSLRLSCAASGFIFFAYAMGWYRQAPGKERELFAAISRTGGSTYYADSVKGRFTISRDNAKNTVYLQMNSLKPEDTAVYYCAADGGYYGRDYWGQGTQVTVSS	high polyreactivity
QLQLVESGGGLVQAGGSLRLSCAASGSIFNIYAMGWYRQAPGKERELVATITGIADYTYYADSVMGRFTISRDNAKNTVYLQMNSLKPEDTAVYYCAADKYVSEYDYWGQGTQVTVSS	low polyreactivity
QVQLVESGGGLVQAGGSLRLSCAASGLTFAYYDMGWYIQAPGKEREMVAAITSGGTTNYADSVKGSFTISRDNANNTVYFQMNSLKPEDTAVYYCNADYYSRIVGVRIYEYWGQGTQVTVSS	low polyreactivity
QVQLVESGGGLVQAGGSLRLSCAASGSTFYGYAMGWYRQAPGKERELVAGITSAGSTYYADSVKGRFTISRDNAKNTVYLQMNSLKPEDTAVYYCAYHGAGYYYWGQGTQVTVSS	high polyreactivity
QVQLVESGGGLVQAGGILRLSCAASGFIFSSNAMGWYRQAPGKERELVAAITSSGGGTYYADSVKGRFTISRDNAKNTVYLQMNSLKPEDTAVYYCNAAYKYAIPSYGYWGQGTQVTVSS	low polyreactivity
QVQLVESGGGLVQAGGSLRLSCAASGSIFYTNDMGWYRQAPGKERELVAAIRYSGVSTYYADSVKGRFTISRDNAKNTVYLQMNSLKPEDTAVYYCATTAYGYRSYSQSQQDMEYWGQGTQVTVSS	high polyreactivity
QVQLQESGGGLVRAGGSLRLSCAASGYISTSIAMGWYRQAPGKERELVASFGGGAITNYADSVKGFTISRDNGKNSVYLQMNSLKPEDTAVYYCAVYHGDRGYYSYWGQGTQVTVSS	low polyreactivity
QVQLVESGGGLVQAGGSLRLSCAATGFTFFRYAMGWYRQARGKERELVAAITYSGSSTYYADSVKGRFTISRDNAKNTGYLQRNSLKPEDTAVYYCNAVQGFYSWVLYYYAYDYWGQGTQVTVSS	high polyreactivity
QVQLVESGGGLVQAGGSLRLSCAASGITFVRYAMGWYRQAPGKERELVAVISRGGITNYADSVKGRFTISRDNAKNSVYLQMNSLKAEDTAVYYCAVRVRSNVRTYDYWGQGTQVTVSS	high polyreactivity
QVQLVDSGGGLVQAGGSLRLSCAASGFTIVHNAMGWYRQAPGKERELVAAISSSGGRTYYADSVKGRFTISRDNAKNTVYLQMNSLKPEDTAVYYCNARGYRGYDYWGQGTQVTVSS	high polyreactivity
QVQLVESGGGLVQAGGSLRLSCAASGRIFSVYAMVWYRQAPGKEREFVAAITKGGVGTYYADSVKGRFTISRDNAKNTVYLQMNSLKPEDTAVYYFAARHYYGADRYYSWGQGTQVTVSS	high polyreactivity
QVQLVESGGGLDQAGGSLRLSCAPSGYTFNVYSMGWYRQAPGNESELVAGISSYGGSTYYADSVKGRFTISRDNAKNTVYIQMNSLKPEDTAVYYCAARSALYPKYESWGQGTQVTVSS	low polyreactivity
QVQLVESGGGLVQAGGSLRLSCAASGSTFKYYAMGWYRQAPGKEREFVAAITANGGRTYYADSVKGRFTISRDNAKNTVYLQMNSLKPEDTAVYYCAARTWYYYVYGYESWGQGTQVTVSS	high polyreactivity
QVQLLESGGGIVQAGGSLRLSCAASGSIFWGYAMGWYRQAPGKERELVAAISSSGGNTYYADSVKGRFTISRDNAKNTVYLQMNSLQPEETAVYYCAATPEFYGGKITDVSSQYGYWGQGPQVTVSS	low polyreactivity
QVQLVESGGCLFQAGGSLRLSCAASGFNFPYYAMGWYRQAPGKERELVAAINRGGSTYYADSEKGRFTISRDNAKNTVYLQMNSLKPEDTAVFYCAAGYPSWYYGYPYDSWGQGTQVNVSS	low polyreactivity
QVQLVESGGGLVQAGVSLRLSCAASGLIFWAYAMGWYRQAPGKERELVAAINSGGRTYYADSVKGRFTISRDNAKNTVYLQMNSLKPEDTAVYYCAAAGVYSSDYWGQCTQVTVSS	low polyreactivity
QVQLEESGGGLVQAGGSLRLSCAASGSTFPPYEMGWYRQAPGKERELVAAISGSGGSTNYADSVKGRFTISRDHAKNTVYLQMNSLKPEDNAVYRDYWGQGTQVTVSS	low polyreactivity
QVQLVESGGGLVQAGGILRLSSAASGSIFSNYAMGWYRQAPGKERELVAAINRSGGSTYYADSVKGRFTISRDNAKNTVYLQITSLKPDDTAVYYCNAVRLYYCAGGQFQYHFWGQGTQVTVSS	high polyreactivity
QVQLVESGGGLVQAGGSLRLSCAASGSIFYVYAMGWYIQAPGKERELVASIRWIGDRTYYADSVKGRFTISRDNAKNTVYLQMNSLKPEDTAVYYCAADPRYYGYYYLTPRYYYWGQGTQVTVSS	high polyreactivity
QVQLVETGGGLVQAGGSLRLRGAASGSTNYNYAMGWYRQAPGKERELVAAISISGGSPYYADSVKGRFTISRDNANNTVYLQMYSLKAEDTAVYYCAAVRLGSRGGYCGQGTQVTVSS	high polyreactivity
QVQLVESGGGLVQAGGSLRLSCAASGFIFDPYGMGWYRQAPGKERELVAAITASGGTTYYADSVKGRFTISLDYANNTVYLQLNSLKPEDTAVYYCAAAVWYRGWYRYDYWGQGTKVTVSS	low polyreactivity
